Test [1] has as its target Trypanosoma brucei FoF1–ATP synthase complex (Trypanosoma brucei (endogenous in PCF and BSF cells)). Nature of the test: native gel or EMSA; blue native electrophoresis of DDM-lysed (2% PCF, 4% BSF) mitochondria, 3 to 12% native gradient gel, 4 °C; Western blot with antibodies against subunit β and Tb2; cells noninduced or with Tb1 or OSCP silenced or ablated. (In general: Mobility shift assays separate free from complexed probe on a gel.)

For test [2] the target is unchanged. As to the kind of experiment: native gel or EMSA; high-resolution clear native electrophoresis of digitonin-lysed (4 mg/mg protein) crude mitochondrial vesicles from PCF and BSF parasites, 3 to 12% native gradient gel, 4 °C; Western blot with antibodies against p18 and Tb1.

Broadly, the stoichiometry N is a count of units in the complex or per binding partner. Turning to “Trypanosoma brucei FoF1–ATP synthase complex”, the stoichiometry N in test [1] and in test [2] was 2 each time.

Values taken from publication PMC7949148.
